According to the RNAGym collection of RNA variant scans (doi:10.7554/elife.90254):

B1: LINE1-full (parent)
chain: UACGUAGGUGGUUUUCCCCUGAUAGUGCUAAGGGGGCCUGGAAGUUUGGACUGGGCAGAGCUCAACACAGCGUGGCAAAGUGGCUGUGGCUAGACUGCCUCUCUGGAUUCCUCGUCACUCAGCAGGGCAUCUCUGAGAGAAAUGCC

Variants of: B1
Assay: self-cleavage, relative activity (ratio to wild type); higher = more cleavage; in vitro, sequencing; the parent is a self-cleaving ribozyme

Variant | self-cleavage
G114A A140U | 1.55
G114A A142G | 1.31
G114A A142U | 1.56
G114A C116U | 0.76
G114A U119A | 1.26
G114A U130C | 1.42
G114A U132C | 1.45
G114A U143A | 0.68
G114A U143C | 1.02
G114A U143G | 1.41
G114C A142G | 1.78
G114C U115C | 1.24
G114U A136G | 1.49
G114U A136U | 1.23
G114U A141U | 1.61
G114U U134A | 1.09
U115A A117G | 1.61
U115A A121G | 1.47
U115A A121U | 1.5
U115A A124G | 0.93
U115A A136U | 1.52
U115A A138G | 1.29
U115A A138U | 1.77
U115A A141U | 0.53

Variant | self-cleavage
U115A C123A | 1.7
U115A C131U | 1.65
U115A C133U | 1.04
U115A C145U | 1.3
U115A G127A | 1.21
U115A U119C | 2.02
U115A U130C | 1.62
U115A U134C | 1.49
U115C A117U | 1.79
U115C A124G | 1.13
U115C A124U | 1.69
U115C A129C | 1.68
U115C A129U | 2.01
U115C A136G | 1.83
U115C A138U | 1.64
U115C A141G | 1.76
U115C A142C | 2.05
U115C A142U | 1.56
U115C C116U | 1.18
U115C C123A | 1.49
U115C C128U | 1.4
U115C C145A | 1.84
U115C C146G | 1.93
U115C C146U | 1.31

Variant | self-cleavage
U115C G125A | 1.82
U115C G126A | 1.85
U115C G135A | 2.23
U115C G137A | 1.15
U115C G137U | 2.16
U115C G139U | 1.79
U115C G144C | 2.13
U115C U119A | 1.78
U115C U119G | 2.63
U115C U130A | 1.78
U115C U130C | 2.03
U115C U132A | 2.4
U115C U132C | 1.84
U115C U134A | 0.9
U115C U143A | 1.79
U115C U143C | 1.61
U115G A121G | 1.62
U115G A129U | 1.34
U115G U143C | 1.86
C116A | 1.16
C116A A138G | 1.52
C116A A141U | 1.47
C116U | 1.29
C116U A117G | 1.61

Variant | self-cleavage
C116U A124G | 1.11
C116U A142G | 1.27
C116U U130C | 0.89
A117C A136G | 1.79
A117C A138G | 2.04
A117C A138U | 2.44
A117C C128U | 1.3
A117C G139A | 1.65
A117C G144U | 1.13
A117C U119A | 1.77
A117G A124U | 1.25
A117G A129C | 1.93
A117G A129G | 1.32
A117G A136G | 1.66
A117G A136U | 1.48
A117G A138G | 1.59
A117G A138U | 1.13
A117G A141G | 1.71
A117G A141U | 1.69
A117G C120U | 2.18
A117G C123U | 1.48
A117G C133U | 2.55
A117G G122U | 1.52
A117G G125A | 0.99

Variant | self-cleavage
A117G G125U | 1.47
A117G G139U | 2.05
A117G G144A | 0.73
A117G U119A | 1.17
A117G U119C | 1.47
A117G U119G | 1.87
A117G U130A | 1.85
A117G U130C | 1.42
A117G U134C | 1.73
A117U A121G | 1.81
A117U A121U | 1.57
A117U A124G | 1.3
A117U A129C | 1.23
A117U A129U | 1.78
A117U A140G | 1.43
A117U A141G | 1.1
A117U A141U | 2.24
A117U C123U | 0.78
A117U C131U | 1.21
A117U C146G | 0.92
A117U G126U | 1.11
A117U G137C | 2.13
A117U U119A | 0.99
A117U U130A | 1.55

Variant | self-cleavage
A117U U130C | 1.58
A117U U132A | 1.32
A117U U143A | 1.23
C118A A129G | 1.1
C118A A138U | 1.47
C118A A142G | 1.41
C118A G125U | 1.03
C118A U132C | 1
C118G U132A | 1.21
C118U A121G | 1.58
C118U A124U | 1.04
C118U A129G | 1.81
C118U A141G | 1.8
C118U A141U | 1.6
C118U C145U | 0.86
C118U U130C | 0.97
C118U U132C | 1.81
C118U U134A | 1.11
C118U U143C | 0.87
U119A | 1.44
U119A A121G | 1.27
U119A A129G | 1.45
U119A A136G | 1.12
U119A A138G | 2.02

Variant | self-cleavage
U119A A140G | 1.29
U119A A140U | 1.69
U119A A141G | 1.74
U119A A142C | 1.95
U119A G122A | 1.35
U119A G144A | 1.68
U119A U132C | 1.96
U119A U143A | 1.16
U119C | 1.59
U119C A121G | 1.23
U119C A129G | 1.88
U119C A138U | 1.67
U119C A140U | 0.97
U119C A141C | 1.84
U119C A141U | 2.27
U119C C123A | 1.36
U119C C123U | 0.62
U119C G122C | 2
U119C G122U | 2.35
U119C G126U | 1.67
U119C G139U | 1.47
U119C U132C | 2.32
U119C U132G | 2.83
U119C U134C | 2.11

Variant | self-cleavage
U119C U134G | 1.58
U119C U143A | 1.94
U119G | 1.63
U119G A129G | 1.15
U119G A136G | 0.94
U119G A140G | 2.22
U119G C146U | 1.86
C120A | 1.41
C120A A121G | 1.39
C120A A121U | 0.93
C120A A129G | 1.29
C120A A140G | 1.32
C120A G122U | 2.31
C120U | 1.37
C120U A121G | 0
C120U A129C | 0.82
C120U A136G | 1.39
C120U A140G | 1.1
C120U A141U | 0.95
C120U G126A | 2.01
C120U U130A | 1.58
C120U U132C | 1.56
C120U U134C | 1.27
A121C A138G | 2.34

Variant | self-cleavage
A121C A141G | 1.99
A121C A142G | 1.1
A121C G127U | 1.44
A121C U143C | 1.99
A121G A124C | 0.32
A121G A124U | 1.62
A121G A136U | 1.97
A121G A140C | 1.93
A121G A140U | 1.45
A121G A141U | 1.77
A121G C123U | 1.07
A121G G125U | 1.8
A121G G135A | 2.36
A121G G139A | 1.06
A121G U132A | 1.86
A121G U134A | 1.32
A121G U143C | 1.69
A121U A124G | 1.31
A121U A124U | 1.54
A121U A129G | 1.77
A121U A136G | 1.47
A121U A136U | 1.07
A121U A140C | 1.09
A121U A140G | 1.18

Variant | self-cleavage
A121U C133U | 1.8
A121U C146U | 1.73
A121U G125U | 1.4
A121U G126U | 1.5
A121U G127A | 0.76
A121U G137A | 2.09
A121U G144A | 1.86
A121U U130C | 1.7
A121U U132C | 1.36
A121U U143C | 1.59
G122A | 1.13
G122A A124G | 0.62
G122A A129G | 1.19
G122A A136G | 1.54
G122A G137U | 1.23
G122C | 1.5
G122C A140C | 1.71
G122C U143C | 1.57
G122U | 1.3
G122U A136U | 1.31
G122U A142G | 1.52
C123A A129U | 1.31
C123A A138G | 1.82
C123U A124G | 1.25

Variant | self-cleavage
C123U A129G | 1.37
C123U A141G | 1.24
C123U A142G | 1.32
C123U G135C | 1.97
C123U U132C | 1.53
A124C A136G | 1.15
A124C A138G | 1.39
A124C A140G | 1.88
A124C A141G | 1.71
A124C G137U | 0.75
A124C U132C | 1.11
A124C U134C | 2.04
A124C U143A | 1.24
A124C U143C | 2.43
A124G A129G | 0.96
A124G A129U | 1.06
A124G A136C | 1.19
A124G A136G | 1.14
A124G A138U | 1.23
A124G A140U | 0.94
A124G A141G | 1.39
A124G A142G | 0.72
A124G C146A | 0.84
A124G G125A | 0.75

Variant | self-cleavage
A124G G135U | 1.49
A124G G139A | 1.84
A124G G144C | 0.68
A124G U130C | 1.58
A124G U143A | 0.98
A124G U143C | 0.62
A124U A129G | 1.72
A124U A136G | 1.43
A124U A138G | 1.79
A124U A138U | 1.37
A124U A140U | 1.09
A124U A141U | 1.27
A124U A142G | 1.51
A124U C131A | 0.96
A124U G127U | 1.62
A124U U130A | 1.7
A124U U130C | 1.66
A124U U132A | 1.56
A124U U134A | 1.31
A124U U143A | 1.75
A124U U143C | 1.26
G125A A129G | 1.38
G125A A129U | 0.46
G125A A138G | 1.01

Variant | self-cleavage
G125A A140U | 0.61
G125A C146U | 1.36
G125A U130A | 1.61
G125A U130C | 1.69
G125A U143C | 0.64
G125U A136G | 0.79
G125U A138G | 2.25
G125U A142G | 1.33
G125U G144U | 1.72
G125U U134C | 1.2
G125U U143C | 1.08
G126A A140G | 1.49
G126A U130C | 1.41
G126C A129G | 2.02
G126U A140G | 0.66
G127A | 1.16
G127A A136G | 1.5
G127A A136U | 1.65
G127A A138U | 1.5
G127A A140U | 1.26
G127A A141G | 0.99
G127A C128U | 1.13
G127A C145A | 1.32
G127A U130C | 1.31

Variant | self-cleavage
G127A U132C | 0.78
G127C | 1.45
G127C U132C | 1.99
G127U | 1.24
G127U A138G | 1.29
G127U A140G | 1.27
G127U U143C | 1.66
C128A U130C | 1.11
C128U A129G | 1.65
C128U A136U | 1.67
C128U A141U | 1.62
C128U U132C | 1.37
A129C | 1.67
A129C G135A | 2.11
A129C U130C | 1.02
A129C U132C | 0.96
A129C U134A | 1.59
A129C U134C | 1.54
A129G | 1.52
A129G A136U | 2.26
A129G A138U | 2.12
A129G A140C | 0.74
